± gives the standard deviation of the averaged measurements.
System: ATP
Test: switch fluorescence ratio, 500 uM ATP over buffer (Cy3 cluster intensity, sum of 5 cycles each) (fold (ratio)); higher = stronger signal-on switching upon ATP binding; sequences stand for … in TCGTCGGCAGCGTCAGATGTGTATAAGAGACAGTTTTTTTTTTTTTTTTTTTTTTTTT…TC
Details: aptamer strand: ATP DNA aptamer (quencher-CACCTGGGGGAGTATTGCGGAGGAAGG + anchor), 100 nM annealed; ATP concentration: 500 uM
How it was run: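 After annealing to 100 nM quencher-labelled ATP aptamer, Cy3-labelled switching-strand clusters on a modified Illumina MiSeq flow-cell were imaged in selection buffer. A second image followed after 15 min with 500 uM ATP at 22 °C, and five such buffer/ATP cycles were done, each separated by NaOH stripping and re-annealing. The fluorescence ratio, averaged per switch-domain sequence, is summed target-cycle over summed buffer-cycle Cy3 intensity per cluster, with clusters outside 100-1000 RFU excluded.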
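Also: ATP exposure 15 min at 22 °C before imaging.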

Sequence	switch fluorescence ratio
GTGTGAGGTG	1 ± 0.03
GTGTGAGTTG	0.961 ± 0.022
GTGTGATCCG	1.01 ± 0.049
GTGTGCACTG	0.996 ± 0.029
GTGTGCCGTG	1.01 ± 0.05
GTGTGCGCGT	0.983 ± 0.025
GTGTGCGCTG	1.008 ± 0.0073
GTGTGGATCA	0.9867 ± 0.0093
GTGTGGGGCG	0.962 ± 0.058
GTGTGGGGGT	0.98 ± 0.019
GTGTGGTTTT	1.03 ± 0.015
GTGTGTGGGG	1.01 ± 0.048
GTGTGTTTTT	0.975 ± 0.053
GTGTTATCGT	0.969 ± 0.045
GTGTTGCCCG	1.07 ± 0.038
GTGTTGCCGA	1 ± 0.079
GTGTTGGGGT	0.986 ± 0.02
GTGTTGTACG	0.999 ± 0.015
GTGTTGTTTT	0.987 ± 0.028
GTGTTTAAA	0.962 ± 0.014
GTGTTTAAGA	1.01 ± 0.026
GTGTTTACTG	1.01 ± 0.054
GTGTTTATCG	0.966 ± 0.016
GTGTTTATGC	0.991 ± 0.0044
GTGTTTTAAA	1 ± 0.037
GTGTTTTAGG	0.96 ± 0.032

Sequence	switch fluorescence ratio
GTGTTTTGGT	0.98 ± 0.024
GTGTTTTTCC	1.41 ± 0.49
GTGTTTTTGT	0.9723 ± 0.0083
GTTAAAATTA	1.01 ± 0.015
GTTAAAGGGG	0.983 ± 0.02
GTTAACAGGA	0.985 ± 0.019
GTTAACGACG	1.017 ± 0.0068
GTTAACTTGA	1.01 ± 0.011
GTTAAGGATG	1.012 ± 0.0071
GTTAATAACA	1.011 ± 0.0052
GTTAATAGAA	0.984 ± 0.035
GTTACAAGCG	0.994 ± 0.018
GTTACAAGGG	0.9883 ± 0.0092
GTTACCTTTT	1.04 ± 0.023
GTTACTGAGG	1.031 ± 0.0017
GTTACTGCTG	1.03 ± 0.043
GTTAGAGATA	0.992 ± 0.015
GTTAGAGGGC	1 ± 0.011
GTTAGAGGGG	1.01 ± 0.033
GTTAGAGGTT	0.999 ± 0.03
GTTAGAGTAT	1 ± 0.012
GTTAGATTGA	0.96 ± 0.041
GTTAGATTGG	0.982 ± 0.013
GTTAGCGCAT	1.04 ± 0.025
GTTAGCTTGA	0.9966 ± 0.00037
GTTAGCTTGC	0.996 ± 0.029

Sequence	switch fluorescence ratio
GTTAGGAGGC	0.989 ± 0.062
GTTAGGAGTT	0.941 ± 0.039
GTTAGGCCTG	0.969 ± 0.013
GTTAGGGGGA	1 ± 0.011
GTTAGGGGTG	1.02 ± 0.023
GTTAGGGTTG	1.02 ± 0.045
GTTAGGTATA	0.9975 ± 0.0098
GTTAGGTTTT	1 ± 0.017
GTTAGTACAG	1.01 ± 0.031
GTTAGTATAA	0.9894 ± 0.0074
GTTAGTCGGT	0.983 ± 0.032
GTTAGTGATG	0.9838 ± 0.003
GTTAGTGGGG	0.992 ± 0.014
GTTAGTGTTG	0.978 ± 0.01
GTTAGTTTTT	0.986 ± 0.02
GTTATAAAGT	0.99 ± 0.024
GTTATAAGTT	1.06 ± 0.027
GTTATAATTG	0.984 ± 0.035
GTTATAGGGT	1.01 ± 0.02
GTTATAGTCG	0.999 ± 0.05
GTTATATAAC	1.03 ± 0.058
GTTATATAGG	0.982 ± 0.046
GTTATGTGGT	0.975 ± 0.0099
GTTATTCCAA	1.03 ± 0.028
GTTCAAATAG	0.9884 ± 0.0095
GTTCAAGGGG	0.983 ± 0.039

Sequence	switch fluorescence ratio
GTTCACTGGG	0.994 ± 0.022
GTTCCAAAGC	1.23 ± 0.019
GTTCCCAGTT	0.997 ± 0.017
GTTCCCTTGA	1.02 ± 0.018
GTTCCGGCGT	1.21 ± 0.25
GTTCCTTGGG	1.01 ± 0.016
GTTCGAAGAC	1.015 ± 0.0023
GTTCGCAAAT	1.09 ± 0.063
GTTCGGGGCT	0.999 ± 0.029
GTTCGGGGGG	1 ± 0.032
GTTCGTATTT	0.997 ± 0.021
GTTCGTCCTC	1.03 ± 0.031
GTTCGTCTTT	1 ± 0.013
GTTCTATGGT	0.998 ± 0.022
GTTCTGAAGG	1.02 ± 0.0029
GTTCTGTCGG	1.002 ± 0.01
GTTCTTGTGT	1.01 ± 0.023
GTTGAACGCG	1.028 ± 0.0015
GTTGAACTTT	1.02 ± 0.046
GTTGAAGTTT	0.9846 ± 0.0073
GTTGAATTGG	0.985 ± 0.026
GTTGACAAAT	1.036 ± 0.01
GTTGACTGGT	0.95 ± 0.016
GTTGAGGGGA	1.01 ± 0.058
GTTGAGGGTT	0.989 ± 0.049
GTTGAGGTTC	1.03 ± 0.035

Sequence	switch fluorescence ratio
GTTGATCAAT	1.03 ± 0.031
GTTGATGGAG	0.992 ± 0.0091
GTTGATGGGA	0.982 ± 0.03
GTTGATGGGG	0.984 ± 0.047
GTTGCATCGA	1.02 ± 0.046
GTTGCCGGGG	1.01 ± 0.015
GTTGCCTTCA	1.14 ± 0.035
GTTGCGGAGT	1 ± 0.021
GTTGCGTGCT	0.969 ± 0.032
GTTGCTAAAT	1 ± 0.03
GTTGCTACTG	1.05 ± 0.041
GTTGCTCTCA	1.01 ± 0.049
GTTGCTGTGG	0.985 ± 0.026
GTTGCTTTTT	0.998 ± 0.035
GTTGGAGCTA	1.036 ± 0.0083
GTTGGAGGAA	0.976 ± 0.0098
GTTGGAGGAG	0.992 ± 0.026
GTTGGAGGAT	0.9843 ± 0.0026
GTTGGATGTA	1.011 ± 0.008
GTTGGATTAA	1 ± 0.046
GTTGGCATGG	1.025 ± 0.0044
GTTGGCGTGA	1.01 ± 0.057
GTTGGGAAGT	0.994 ± 0.038
GTTGGGAGCG	1 ± 0.033
GTTGGGATTG	1.01 ± 0.013
GTTGGGGCTG	0.973 ± 0.14

Sequence	switch fluorescence ratio
GTTGGGGGCG	0.991 ± 0.052
GTTGGGGGG	0.984 ± 0.041
GTTGGGGTTC	0.982 ± 0.027
GTTGGGGTTG	1.01 ± 0.025
GTTGGTAAGA	0.9979 ± 0.0036
GTTGGTATTC	0.9965 ± 0.0086
GTTGGTCGTG	1 ± 0.038
GTTGGTGGGA	0.973 ± 0.025
GTTGGTGTTT	0.985 ± 0.016
GTTGGTTACC	1.01 ± 0.041
GTTGGTTATG	0.99 ± 0.041
GTTGGTTCTT	1 ± 0.039
GTTGTAAAGA	0.98 ± 0.019
GTTGTAACAT	0.99541 ± 0.00081
GTTGTAAGG	1.02 ± 0.025
GTTGTAAGTT	0.978 ± 0.0098
GTTGTATGTA	1 ± 0.049
GTTGTATGTG	0.965 ± 0.047
GTTGTCGTGT	1.01 ± 0.049
GTTGTGCTTT	0.984 ± 0.011
GTTGTGGATA	0.97 ± 0.029
GTTGTGGCGT	0.9853 ± 0.0069
GTTGTGGGTA	0.975 ± 0.034
